What was measured:
[1] = molecular target: soluble Aβ1-42, [125I]Aβ1-42 (human) (UniProt P05067); assay: capture radioimmunoassay, 50,000 CPM of 125I-Aβ 1-42 (or 125I-Aβ 1-40)
[2] = molecular target: synthetic Aβ1-42 (aggregated in the ELISAs) (human) (UniProt P05067); assay: ELISA on aggregated synthetic Aβ1-42; given as ED50

Row | % of radioactive counts bound at 10 µg/ml [1] [%] | EC50 [2] [pM] | Substance
1 | 2 | 53 | monoclonal antibody 10D5 (IgG1)
2 | 7 | 667 | monoclonal antibody 12B4 (IgG2a)

Reference: US20060198851A1
